The subject of the series is BglII restriction endonuclease (R.BglII) (Bacillus globigii). The experiment in a line: cleavage_in_vitro. The following applies: nonspecific nicking test; 80 units, 4 h, 37 C, 10 mM MgCl2.

Consider phiX174 RFI DNA, for which the activity (% converted to RFII) is 10.
